Reference: PMC2730168 (Molecular cell, 2009)

T1: Core RAG1 (384–1008) fused to MBP (MR1) (mouse, UniProt P15919 384-1008)
T1 sequence (looked up): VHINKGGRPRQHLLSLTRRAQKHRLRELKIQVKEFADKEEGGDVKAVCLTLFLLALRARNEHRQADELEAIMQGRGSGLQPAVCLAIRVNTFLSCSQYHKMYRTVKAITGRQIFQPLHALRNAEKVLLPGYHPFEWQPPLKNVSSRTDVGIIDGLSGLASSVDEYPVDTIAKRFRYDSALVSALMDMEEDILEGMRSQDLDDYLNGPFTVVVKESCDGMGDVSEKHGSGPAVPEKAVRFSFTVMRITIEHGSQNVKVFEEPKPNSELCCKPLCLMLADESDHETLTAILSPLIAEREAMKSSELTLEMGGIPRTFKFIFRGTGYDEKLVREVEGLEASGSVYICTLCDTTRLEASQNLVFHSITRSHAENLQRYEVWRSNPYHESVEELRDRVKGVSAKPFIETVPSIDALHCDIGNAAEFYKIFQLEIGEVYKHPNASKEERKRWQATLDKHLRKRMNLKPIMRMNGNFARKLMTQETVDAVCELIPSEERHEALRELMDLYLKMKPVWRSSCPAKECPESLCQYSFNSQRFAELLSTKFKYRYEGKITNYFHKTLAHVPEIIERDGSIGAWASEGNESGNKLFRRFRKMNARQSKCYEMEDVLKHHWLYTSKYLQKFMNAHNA

T2: Core RAG1 (384–1008) fused to MBP (MR1) (mouse), P15919
T2 chain: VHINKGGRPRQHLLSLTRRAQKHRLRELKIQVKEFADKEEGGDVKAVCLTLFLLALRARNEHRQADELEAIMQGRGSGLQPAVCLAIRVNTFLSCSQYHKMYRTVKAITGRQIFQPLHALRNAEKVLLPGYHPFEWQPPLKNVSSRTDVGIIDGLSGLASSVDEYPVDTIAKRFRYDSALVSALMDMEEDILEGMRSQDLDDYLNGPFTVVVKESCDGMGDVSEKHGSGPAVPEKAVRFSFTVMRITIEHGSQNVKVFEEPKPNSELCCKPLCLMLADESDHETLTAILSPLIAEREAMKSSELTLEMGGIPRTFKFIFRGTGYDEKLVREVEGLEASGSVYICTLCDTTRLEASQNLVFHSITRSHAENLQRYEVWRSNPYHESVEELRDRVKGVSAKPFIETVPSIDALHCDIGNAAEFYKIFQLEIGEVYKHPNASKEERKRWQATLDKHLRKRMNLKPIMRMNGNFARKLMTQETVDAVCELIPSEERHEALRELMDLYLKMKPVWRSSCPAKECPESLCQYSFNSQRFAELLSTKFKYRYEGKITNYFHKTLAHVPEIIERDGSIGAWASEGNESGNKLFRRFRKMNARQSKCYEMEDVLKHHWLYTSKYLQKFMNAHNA


Assays:
[1] = target: T1, Core RAG1 (384–1008) fused to MBP (MR1); assay: SEC
[2] = target: T2, Core RAG1 (384–1008) fused to MBP (MR1) …; assay: SEC-MALS; details: remark: other sources report otherwise

Row | stoichiometry N [1] | stoichiometry N [2] | Binder
1 | ~0.5 per RAG1 |  | HMGB1 (1–163) (domain or fragment, UniProt P09429 1-163, looked up) MGKGDPKKPRGKMSSYAFFVQTCREEHKKKHPDASVNFSEFSKKCSERWKTMSAKEKGKFEDMAKADKARYEREMKTYIPPKGETKKKFKDPNAPKRPPSAFFLFCSEYRPKIKGEHPGLSIGDVAKKLGEMWNNTAADDKQPYEKKAAKLKEKYEKDIAAYR
2 |  | 2 | Core RAG1 (384–1008) fused to MBP (MR1), P15919 384-1008 (domain or fragment) VHINKGGRPRQHLLSLTRRAQKHRLRELKIQVKEFADKEEGGDVKAVCLTLFLLALRARNEHRQADELEAIMQGRGSGLQPAVCLAIRVNTFLSCSQYHKMYRTVKAITGRQIFQPLHALRNAEKVLLPGYHPFEWQPPLKNVSSRTDVGIIDGLSGLASSVDEYPVDTIAKRFRYDSALVSALMDMEEDILEGMRSQDLDDYLNGPFTVVVKESCDGMGDVSEKHGSGPAVPEKAVRFSFTVMRITIEHGSQNVKVFEEPKPNSELCCKPLCLMLADESDHETLTAILSPLIAEREAMKSSELTLEMGGIPRTFKFIFRGTGYDEKLVREVEGLEASGSVYICTLCDTTRLEASQNLVFHSITRSHAENLQRYEVWRSNPYHESVEELRDRVKGVSAKPFIETVPSIDALHCDIGNAAEFYKIFQLEIGEVYKHPNASKEERKRWQATLDKHLRKRMNLKPIMRMNGNFARKLMTQETVDAVCELIPSEERHEALRELMDLYLKMKPVWRSSCPAKECPESLCQYSFNSQRFAELLSTKFKYRYEGKITNYFHKTLAHVPEIIERDGSIGAWASEGNESGNKLFRRFRKMNARQSKCYEMEDVLKHHWLYTSKYLQKFMNAHNA
3 | 1 RAG1:RAG2 |  | Core RAG2 fused to MBP with a PreScission protease site (LR2) (domain or fragment, mouse, UniProt P21784 1-387, looked up) MSLQMVTVGHNIALIQPGFSLMNFDGQVFFFGQKGWPKRSCPTGVFHFDIKQNHLKLKPAIFSKDSCYLPPLRYPATCSYKGSIDSDKHQYIIHGGKTPNNELSDKIYIMSVACKNNKKVTFRCTEKDLVGDVPEPRYGHSIDVVYSRGKSMGVLFGGRSYMPSTQRTTEKWNSVADCLPHVFLIDFEFGCATSYILPELQDGLSFHVSIARNDTVYILGGHSLASNIRPANLYRIRVDLPLGTPAVNCTVLPGGISVSSAILTQTNNDEFVIVGGYQLENQKRMVCSLVSLGDNTIEISEMETPDWTSDIKHSKIWFGSNMGNGTIFLGIPGDNKQAMSEAFYFYTLRCSEEDLSEDQKIVSNSQTSTEDPGDSTPFEDSEEFCFS
